Experimental data as given in paper PMC8911618, “Application of β-Glucosidase in a Biphasic System for the Efficient Conversion of Polydatin to Resveratrol” (Molecules, 2022).

Tested on: T1, O=[N+]([O-])c1ccc(O[C@@H]2O[C@H](CO)[C@@H](O)[C@H](O)[C@H]2O)cc1
T1 construct: signal peptide removed, starts at residue 29 with added Met; C-terminal His6 (reverse primer), pQE30, E. coli JM109, Ni-NTA
Assay: purified protein
Format: biochemical, Sphingomonas sp. ATCC 31555
Settings: McIlvaine buffer, pH 5.5, 45 °C, 0.1–20 mM pNPG

Substance: SpBGL1 (Sphingomonas sp. ATCC 31555)
- Km: 13.09 ± 3.43 mM
